Measurements from patent US11298402B2, “Lysosomal degradation of lipids and proteins and method of use thereof” (University of Ottawa, priority 2015, dated 2022).

Experiments:
[1] = system: McA-RH7777 cells stably expressing human apoB-100 and human apoC-III (A18-C3); format: cell-based; settings: for effect on EPA-induced lipid degradation (CLD turnover): cells silenced, transfected or pre-treated, then EPA 0.4 mM, 6 h; for effect on lipid degradation when co-expressed with Arl8b^WT, Arl8b^Q75L or Arl8b^T34N: co-transfected cells, 6 h post-OA or -EPA
Procedure: (§1) In certain non-limiting examples described herein, McA-RH7777 cells stably expressing human apoB-100 and human apoC-III (designated A18-C3) were used for the studies. […] In addition, these studies, particularly those concerning EPA- or DHA-triggered lysosomal motility and CLD degradation, were also performed using primary rat hepatocytes. Transfection of plasmids encoding proteins of interest, or transfection of siRNA specific for silencing target gene expression, was achieved using the FuGENE HP Extreme reagent (Roche). Representative gene silencing siRNA sequences, which are not meant to be limiting, are described in Table 1, and plasmids encoding proteins of interest are described in Table 2. The effectiveness of siRNA silencing was verified by Western-blotting of cellular content of the target proteins, and by intracellular localization assay using siRNA-Tracker (Mirus Bioscience). Twenty-four h after plasmid transfection, or 48 h after siRNA transfection, the cells were cultured in lipid-rich media containing fetal bovine serum (20%) and OA (0.4 mM). The lipid-laden cells were switched to fresh media supplemented with OA or EPA (0.4 mM). In live imaging experiments, LipidTOX Red (Life Technologies) and LysoTracker (Life Technologies) were added to media prior to EPA treatment, to visualize lipid droplets and lysosomes, respectively. For visualizing peroxisomes, Peroxisome-GFP (Invitrogen) was introduced to the cells 24 h prior to experiments. Quantification of cell lipid contents was achieved either by direct mass measurement (HPTLC) and counting the number of lipid droplets using Image J Lipid Droplet Counter Plug-In, or indirectly by Western blot analysis of cellular content of ADRP. Secretion of apoB and TG-rich lipoprotein was determined by Western blot analysis and metabolic labeling. Mitochondrial β-oxidation was measured using MitoSOX Red (Life Technologies) in situ. Autophagic flux was determined by using Cyto-ID assay (Enzo Life Science) and by monitoring GFP-LC3 clustering in situ. Interaction of Arl8b and subunits of the HOPS complex was determined in situ by the proximity ligation assay (Olink Biosience). Cytoplasmic pH was measured using the cytosolic pHrodo indicator reagent (Invitrogen). Live imaging of fluorescent-tagged proteins was performed 1 h post-EPA treatment. Cells were also collected at the time of EPA treatment for transmission EM and tomography, as well as immuno-EM. For movies, cells were imaged at 60 sec intervals every 5 min, for a total of 30 min.
The A18-C3 cells were cultured in DMEM (Invitrogen) supplemented with fetal bovine serum (20%), penicillin (50 U/mL), streptomycin (50 μg/mL, Invitrogen) and Geneticin/G418 (500 μg/mL, Gibco) at 37° C. in 5% CO2. Transfection was conducted when cells were 60-70% confluence. Appropriate plasmids were mixed with FuGENE HP extreme reagent (Roche Diagnostic), according to manufacturer's protocol, and incubated for 30 min. Twenty-four h after transfection, cells were switched to lipid-rich media containing OA (0.4 mM) for additional 16 h prior to imaging and biochemical analysis. In silencing experiments, appropriate siRNAs were transfected into cells using the X-treme GENE siRNA regent (Roche Diagnostic). Localization of siRNA in transfected cells in situ was carried out using the Cy5 Label IT-siRNA Tracker (Minis Bioscience #7213) according to manufacturer's protocol. Forty-eight h after transfection, cells were switched to lipid-rich media containing OA (0.4 mM) for additional 16 h prior to imaging and biochemical analysis.
Quantification of lipid droplets was carried out using confocal and differential interface contrast (DIC) microscopy. Lipid droplets were stained with LipidTOX Red (Invitrogen) before adding OA or EPA. All images were visualized using a 63× oil immersion objective lens. Z-series stacks were acquired with 0.2 μm steps. […]

[2] = system: McA-RH7777 cells (A18-C3); assay: Live imaging of lysosomal motility and lysosome-CLD interaction (kiss-and-run); format: cell-based, rat; settings: for effect on EPA-triggered lysosomal motility / lysosomal interaction with CLD: cells silenced, transfected or pre-treated (15 min) before EPA
Procedure: as §1
Cells were grown on 35-mm glass bottom dishes (Ibidi GmbH München, Germany) for 16 h in DMEM supplemented with FBS (20%) and OA (0.4 mM). Cells were imaged using a Zeiss 510 META laser scanning confocal microscope with a heated CO2-controlled stage (5% CO2 at 37° C.). Images were captured at a frame-rate of 30 frame/sec using a 63×. N.A.1.4 objective. Recommended laser lines and filter combinations were used for each dye. For visualization of lipid droplets, lysosomes, mitochondria, and mitochondrial β-oxidation, the respective reagents LipidTOX Red (Invitrogen), LysoTracker (Life Technology), MitoTracker (Life Technology), MitoSox Red (Invitrogen), and Peroxisome-GFP BacMam2.0 (Invitrogen) were introduced into the cells, according to manufacturers' recommendations, prior to EPA treatment.
Cells were cultured with lipid-rich media containing OA (0.4 mM) for 16 h. The lipid-laden cells were switched to fresh media containing EPA (0.4 mM) for 1 h, and the lysosomal movement towards lipid droplets was recorded by time-lapse microscopy. Fluorescent intensity of lysosomal signals at the periphery of selected individual lipid droplet was measured using Image J Live Intensity Profiler Plug-in^31-33 over a period of 40 sec. Quantification for each condition was carried out for 60 individual lipid droplets from three independent experiments. Constant threshold was applied to all of the images in each experiment.

[3] = system: endogenous HOPS subunits (Vps41, Vps11, Vps39); assay: Proximity ligation assay (in situ co-IP) of Arl8b with HOPS subunits; format: cell-based, rat; settings: mCherry-tagged Arl8b
Procedure: as §1
Cells were transfected with plasmids encoding RFP-tagged Arl8b^WT, Arl8b^Q75L, or Arl8b^T34N. The cells were treated with OA for 16 h (baseline condition as control). […] Quantification of signals was done in a total of 50 cells under each condition from 3 independent experiments.

[4] = system: McA-RH7777 cells (A18-C3); assay: Immuno-EM of Arl8b organellar association; format: cell-based, rat; settings: RFP-tagged Arl8b in transfected cells, 1 h post-EPA
Procedure: For immunogold labeling, pellets of cells cultured in media containing OA or EPA (0.4 mM) were fixed with 0.5% glutaraldehyde and 4% paraformaldehyde in 0.1 M phosphate buffer (pH 7.4) and dehydrated through a series of graded ethanol dilutions, and embedded in LR White acrylic resin (London Resin Company). Ultrathin sections (80 nm) were placed on Formvar-coated nickel grids. For post-embedding immunolabeling, the sections were incubated with an anti-Arl8b antibody (Fitzgerald) for 1 h. For ^RFPArl8b-transfected cells, that primary antibody used was anti-RFP (Abcam). After washing with 0.2 M sodium cacodylate buffer containing 0.1% calcium chloride, pH 7.4, the samples were incubated with the secondary antibody conjugated with 10-nm gold particles. To increase contrast, the ultrathin sections were stained with 2% uranyl acetate for 6 min and Reynold's lead for 5 min. The grids were examined with a Tecnai 12 120 kV TEM as described above.

[5] = system: C57BL/6 mice; assay: Diet-induced fatty liver mouse model (high-fat-high-sucrose diet), Oil Red O; format: in vivo; settings: adenovirus injected 1 day before HFHS diet for up to 4 days
Procedure: The respective Arl8b^T34N (DN), Arl8b^Q75L (DA), and Arl8b^WT constructs, along with empty virus (EV; control treatment) were injected into mice 1 day prior to feeding with a high fat diet for up to 4 days. The livers were stained with Oil Red O to determine the lipid contents, under the expression of various forms of Arl8b.
In these experiments, C57BL/6 mice were injected with adenovirus encoding different variants, namely Arl8b^T34N, Arl8b^Q75L, and Arl8b^WT. In these mice, expression of Arl8b proteins encoded by the adenoviral vectors lasts at least a few weeks. Thus, 1-day after viral injection, the mice were placed on a high-fat-high-sucrose (HFHS) diet for up to 4 days.

[6] = system: hepatic cells; assay: Hepatic glucose uptake (fluorescent 2-NBDG assay); format: cell-based; settings: transfected cells treated with EPA

Arl8b^WT: wild-type ADP-ribosylation factor-like protein 8b, overexpressed from plasmid or adenovirus; tagged forms used
effect on EPA-induced lipid degradation (CLD turnover) [1]: An increase in lipid degradation | duration of association between lysosomes and CLD (the on phase) ([2]; GFP-tagged Arl8b-expressing cells, EPA): approximately 15 seconds | effect on EPA-triggered lysosomal motility / lysosomal interaction with CLD [2]: does not affect lysosomal motility | binding to endogenous HOPS subunits ([3]; cells treated with OA): binds predominately to endogenous Vps41 and to a lesser extent Vps11 | binding to endogenous HOPS subunits ([3]; upon addition of EPA): binds to all three Vps proteins examined | organellar association (lysosome vs CLD) [4]: dual presentation between lysosomes and CLD | liver steatosis (Oil Red O) [5]: steatosis became apparent | glucose uptake [6]: Low level of glucose uptake

B1: Vps11: HOPS subunit overexpressed from plasmid (GFP-tagged) (protein)
chain: AAYLQWRRFVFFEKELVKEPLGNDGATPGAAPTSGPTASKFLCLPPGITVCDSGRGSLVFGDMEGQIWFLPRSLQLTGFQAYKLRVTHLYQLKQHNILASVGEDEEGINPLVKIWNLEKRDGGNPLCTRILPAIPGTEPTVVSCLTVHENLNFMAIGFTDGSVTLNKGDITRDRHSKTQILHKGSYPVTGLAFRQAGKTTHLFVVTTENVQSYIVSGKDYPRVELDTHGCGLRCSALSDPSQDLQFIVAGDECVYLYQPDERGPCFAFEGHKLIAHWFRGYLVIVSRDRKVSPKSEFTSRDSQNSDKQILNIYDLCNKFIAYSAVFEDVVDVLAEWGSLYVLTRDGRVHALQEKDTQTKLEMLFKKNLFEMAINLAKSQHLDSDGLAQIFMQYGDHLYSKGNHDGAVQQYIRTIGKLEPSYVIRKFLDAQRIHNLTAYLQTLHRQSLANADHTTLLLNCYTKLKDSSKLEEFIKTKSESEVHFDVETAIKVLRQAGYYSHALYLAENHAHHEWYLKIQLEDIKNYQEALRYIGKLPFEQAESNMKRYGKILMHHIPEQTTQLLKGLCTDYRPSLEGRGDREFPSCRANSEEFIPIFANNPRELKAFLEHMSEVQPDSPQGIYDTLLELRLQNWAHEKDPQAKEKLHAEAISLLKSGRFCDVFDKALVLCQMHDFQDGVLYLYEQGKLFQQIMHYHMQHEQYRQVIAVCERHGEQEPSLWEQALSYFARKEEDCKEYVAAVLRHIENKSLMPPLLVVQTLAHNSTATLSIIRDYLVQKLQKQSQQIAQDELRVRRYREETTRIRQEIQELKASPKIFQKTKCSICNSALELPSVHFLCGHSFHQHCFESYSESDADCPTCLPENRKVMDMIRAQEQKRDLHDQFQHQLKCSNDSFSVIADYFGRGVFNKLTLLTDPPTARLTPSLEAGLQRDLLMHSRRGT
effect on EPA-induced lipid degradation (CLD turnover) [1]: block lipid degradation | effect on lipid degradation when co-expressed with Arl8b^WT, Arl8b^Q75L or Arl8b^T34N [1]: invariably blocks lipid degradation | effect on EPA-triggered lysosomal motility / lysosomal interaction with CLD [2]: enhanced lysosomal-CLD interaction

B2: Vps39: HOPS subunit overexpressed from plasmid (GFP-tagged) (protein, UniProt Q96JC1 1-886, looked up)
Vam6/Vps39-like protein: MHDAFEPVPILEKLPLQIDCLAAWEEWLLVGTKQGHLLLYRIRKDVVPADVASPESGSCNRFEVTLEKSNKNFSKKIQQIHVVSQFKILVSLLENNIYVHDLLTFQQITTVSKAKGASLFTCDLQHTETGEEVLRMCVAVKKKLQLYFWKDREFHELQGDFSVPDVPKSMAWCENSICVGFKRDYYLIRVDGKGSIKELFPTGKQLEPLVAPLADGKVAVGQDDLTVVLNEEGICTQKCALNWTDIPVAMEHQPPYIIAVLPRYVEIRTFEPRLLVQSIELQRPRFITSGGSNIIYVASNHFVWRLIPVPMATQIQQLLQDKQFELALQLAEMKDDSDSEKQQQIHHIKNLYAFNLFCQKRFDESMQVFAKLGTDPTHVMGLYPDLLPTDYRKQLQYPNPLPVLSGAELEKAHLALIDYLTQKRSQLVKKLNDSDHQSSTSPLMEGTPTIKSKKKLLQIIDTTLLKCYLHTNVALVAPLLRLENNHCHIEESEHVLKKAHKYSELIILYEKKGLHEKALQVLVDQSKKANSPLKGHERTVQYLQHLGTENLHLIFSYSVWVLRDFPEDGLKIFTEDLPEVESLPRDRVLGFLIENFKGLAIPYLEHIIHVWEETGSRFHNCLIQLYCEKVQGLMKEYLLSFPAGKTPVPAGEEEGELGEYRQKLLMFLEISSYYDPGRLICDFPFDGLLEERALLLGRMGKHEQALFIYVHILKDTRMAEEYCHKHYDRNKDGNKDVYLSLLRMYLSPPSIHCLGPIKLELLEPKANLQAALQVLELHHSKLDTTKALNLLPANTQINDIRIFLEKVLEENAQKKRFNQVLKNLLHAEFLRVQEERILHQQVKCIITEEKVCMVCKKKIGNSAFARYPNGVVVHYFCSKEVNPADT
modifications: GFP tag
effect on EPA-induced lipid degradation (CLD turnover) [1]: promotes the process | effect on lipid degradation when co-expressed with Arl8b^WT, Arl8b^Q75L or Arl8b^T34N [1]: promotes the process | effect on EPA-triggered lysosomal motility / lysosomal interaction with CLD [2]: does not interfere with termination of lysosomal lipid droplet engulfment process and dissociation from CLD
